Positions count from the first letter of the chain named. Numbers in names are those of the source. No end group written: not given here.
How the values were obtained:
[1] = target: T1, DEE-His (His-tagged V453D-Q454E-K455E GDH-B) (Acinetobacter calcoaceticus, UniProt P13650, K455E/Q454E/V453D); assay: SPR (BIAcore X) binding of immobilized synthesized peptides, DEE-His as analyte; conditions: peptide on CM5 chip (amine coupling), analyte 5 nM to 90 μM in 10 mM MOPS–NaOH pH 7.0, less than 20 RU at any analyte concentration = not binding, read-out: Kd against DEE-His
T1 construct: 6-His (C); made in house
T1 sequence (P13650 25-478 V453D/Q454E/K455E): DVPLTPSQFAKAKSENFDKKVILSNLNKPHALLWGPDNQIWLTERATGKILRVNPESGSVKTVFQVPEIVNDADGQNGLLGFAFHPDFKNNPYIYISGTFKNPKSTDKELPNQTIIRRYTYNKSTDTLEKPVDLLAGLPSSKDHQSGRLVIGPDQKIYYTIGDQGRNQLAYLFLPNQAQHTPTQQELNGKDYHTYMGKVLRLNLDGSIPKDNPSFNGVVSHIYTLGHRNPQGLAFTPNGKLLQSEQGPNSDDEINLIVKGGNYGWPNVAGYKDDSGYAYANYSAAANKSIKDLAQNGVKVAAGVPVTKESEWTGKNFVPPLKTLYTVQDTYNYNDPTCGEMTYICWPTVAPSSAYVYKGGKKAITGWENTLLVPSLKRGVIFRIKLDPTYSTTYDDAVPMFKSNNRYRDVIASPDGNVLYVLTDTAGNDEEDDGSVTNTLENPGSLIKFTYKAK
Description: (§1) The purity was greater than 95%.

HI (Y367H-N452I GDH-B) = target: T2, HI (Y367H-N452I GDH-B) (Acinetobacter calcoaceticus, UniProt P13650, N452I/Y367H); assay: SPR (BIAcore X) binding of immobilized synthesized peptides, HI as analyte; conditions: peptide on CM5 chip (amine coupling), analyte 5 nM to 90 μM in 10 mM MOPS–NaOH pH 7.0, less than 20 RU at any analyte concentration = not binding, read-out: Kd against HI
T2 construct: made in house; host or cells: Escherichia coli PP2418 / pTrc99A
T2 sequence (P13650 25-478 Y367H/N452I): T1 sequence (P13650 25-478 V453D/Q454E/K455E) with Y343H, N428I, D429V, E430Q, E431K
Description: as §1

[2] = target: T3, wild-type water-soluble pyrroloquinoline quinone (PQQ) glucose dehydrogenase (GDH-B) (UniProt P13650 25-478); assay: SPR; BIAcore X; peptide immobilised on CM5 chip by amine coupling (320-2130 RU); analytes GDH-B, DEE-His or HI, five concentrations (5 nM to 90 uM) in 10 mM MOPS-NaOH pH 7.0, 10 uL/min to plateau; Kd from plateau RU against concentration (Scatchard); less than 20 RU at any concentration judged as not binding; conditions: both partners purified
T3 construct: water-soluble PQQ-dependent glucose dehydrogenase (GDH-B); structural gene in pTrc99A; Produced as apo-form in E. coli; PQQ and Ca2+ are added for activity assays; also called wild-type GDH-B; W.T; source: E. coli PP2418 (pTrc99A), purified as previously described (cation exchange chromatography)
T3 sequence (looked up): T1 sequence (P13650 25-478 V453D/Q454E/K455E) with D429V, E430Q, E431K

Y367H-N452I GDH-B (HI) = target: T4, Y367H-N452I GDH-B (HI) (UniProt P13650 25-478, Y367H | N452I); assay: SPR; conditions: both partners purified
T4 construct: also called antagonistic template; source: E. coli PP2418 (pTrc99A), soluble, purified (Resource S cation exchange, Superdex 200 size exclusion chromatography)
T4 sequence: T1 sequence (P13650 25-478 V453D/Q454E/K455E) with Y343H, N428I, D429V, E430Q, E431K

[3] = target: T3, wild-type water-soluble …; assay: enzyme inhibition assay; residual activity of 0.7 nM GDH-B for 50 mM D-glucose after 1 h incubation with various concentrations of peptide; DCIP/PMS, 10 mM MOPS-NaOH pH 7.0, PQQ, CaCl2; non-competitive dominant mixed inhibition; conditions: both partners purified
[4] = Substrate specificity of GDH-B mutants; type: biochemical; conditions: galactose 20 mM; activity against glucose = 100%
Procedure: Figure 3. Substrate specificity of wild-type GDH-B (W.T.), DEE-His, and HI against glucose, lactose, maltose, 3-O-methylglucose (3-O-m glucose), allose, galactose, or 2-deoxyglucose (2DG). Each substrate concentration was 20 mM. The enzymatic activity of each enzyme against glucose was set as 100%.
(§2) GDH-B activity was measured using 0.06 mM 2,6-dichlorophenolindophenol (DCIP) and 0.6 mM phenazine methosulfate (PMS) following 30 min pre-incubation in 10 mM MOPS–NaOH buffer (pH 7.0) containing 1 μM PQQ and 1 mM CaCl2 at room temperature (25 °C). The enzyme activity was determined by measuring the decrease in absorbance of DCIP at 600 nm. For the inhibition assay, the residual activity of 0.7 nM GDH-B for 50 mM D-glucose was measured following 1 h incubation with various concentrations of each peptide. GDH-B activity in the absence of peptide was defined as 100%.

[5] = Kinetic parameters of GDH-B and mutant enzymes; type: biochemical
Procedure: as §2

[6] = decrease vs wild-type GDH-B, ref [36]; cited from earlier work
Description: We, and other research groups, have been engaged in constructing of variety of mutant GDH-Bs in order to develop an ideal enzyme for glucose monitoring. For example, we have reported the Asn452Thr GDH-B mutant, showing approximately 50% lower activity for lactose and maltose than the wild-type GDH-B [36].

[7] = DCIP/PMS assay, 10 mM MOPS–NaOH pH 7.0, 1 μM PQQ, 1 mM CaCl2, 25 °C

## LGDSSNSQVSLN [DEE4–5]
[1]
  Kd: > 90 µM
HI (Y367H-N452I GDH-B)
  Kd: > 90 µM

## NSTHHHHFATIW [DEE4–10]
[1]
  Kd: > 90 µM
HI (Y367H-N452I GDH-B)
  Kd: > 90 µM

## SDLSPIQSLSAI [DEE4–6]
[1]
  Kd: > 90 µM

## ELITNSETTQWF [HI3-2]
[1]
  Kd: > 90 µM

B1: DEE4–5 synthesized 12-mer peptide (peptide)
peptide: LGDSSNSQVSLN
notes: 12-mer selected from the Ph.D.-12 phage display peptide library; Immobilised on a CM5 chip by amine coupling in the SPR; also called DEE3-4; source: synthetic peptide, bought: Sigma Aldrich Japan
[2]
  Kd: 13 µM

B2: DEE4–6 synthesized 12-mer peptide (peptide)
peptide: SDLSPIQSLSAI
notes: 12-mer selected from the Ph.D.-12 phage display peptide library; Immobilised on a CM5 chip by amine coupling in the SPR; also called DEE4–9; source: synthetic peptide, bought: Sigma Aldrich Japan
Y367H-N452I GDH-B (HI)
  Kd: 230 µM
[2]
  Kd: 2.5 µM

B3: DEE4–10 synthesized 12-mer peptide (peptide)
peptide: NSTHHHHFATIW
notes: 12-mer selected from the Ph.D.-12 phage display peptide library; Immobilised on a CM5 chip by amine coupling in the SPR; also called HI4–6; source: synthetic peptide, bought: Sigma Aldrich Japan
[3]
  Ki: 7.4 µM
[2]
  Kd: 0.7 µM

B4: HI3-2 synthesized 12-mer peptide (peptide)
peptide: ELITNSETTQWF
notes: 12-mer selected from the Ph.D.-12 phage display peptide library; Immobilised on a CM5 chip by amine coupling in the SPR; source: synthetic peptide, bought: Sigma Aldrich Japan
Y367H-N452I GDH-B (HI)
  Kd: 88 µM
[2]
  Kd: 2.5 µM

B5: DEE-His: GDH-B mutant V453D-Q454E-K455E, 6-His tag fused to the C-terminal, antagonistic template (protein)
chain: T1 sequence (P13650 25-478 V453D/Q454E/K455E)
modifications: left off: His6, C-terminal, kept
notes: GDH-B mutant V453D-Q454E-K455E, 6-His tag fused to the C-terminal, antagonistic template
[4]
  relative activity toward galactose (in words): higher relative activity toward galactose
[5]; [7]
  Km: 91 mM
  Vmax: 28 U/mg protein
[5]; compared to the wild-type enzyme
  Km compared to wild-type enzyme (in words): increased Km value
[5]; refolded DEE-His, with PQQ
  GDH activity with PQQ (in words): showed GDH activity with PQQ

B6: Asn452Thr GDH-B mutant: previously reported Asn452Thr GDH-B mutant, ref [36] (protein, UniProt P13650 25-478, looked up, variant N452T)
Quinoprotein glucose …: T1 sequence (P13650 25-478 V453D/Q454E/K455E) with N428T, D429V, E430Q, E431K
[6]
  lower activity for lactose than the wild-type: approximately 50%
  lower activity for maltose than the wild-type: approximately 50%

B7: GDH-B: water-soluble pyrroloquinoline quinone (PQQ) dependent glucose dehydrogenase, wild type (protein)
chain: T1 sequence (P13650 25-478 V453D/Q454E/K455E) with D429V, E430Q, E431K
[5]; [7]
  Km: 25 mM
  Vmax: 5200 U/mg protein

B8: GB-His: GDH-B fused with 6-His tag to the C-terminal (protein)
chain: T1 sequence (P13650 25-478 V453D/Q454E/K455E) with D429V, E430Q, E431K
modifications: left off: His6, C-terminal, kept
notes: GDH-B fused with 6-His tag to the C-terminal
[5]; pH 7
  Km: 24 mM
  Vmax: 3950 U/mg protein

B9: HI: GDH-B mutant Y367H-N452I, antagonistic template (protein)
chain: T1 sequence (P13650 25-478 V453D/Q454E/K455E) with Y343H, N428I, D429V, E430Q, E431K
[5]; [7]
  Km: 18 mM
  Vmax: 170 U/mg protein

Reference: paper PMC3876041, “Screening of Peptide Ligands for Pyrroloquinoline Quinone Glucose Dehydrogenase Using Antagonistic Template-Based Biopanning” (International Journal of Molecular Sciences, 2013)
